The test deals with T1, D25 antibody (IgG).
T1 construct: RSVF site 0 neutralising antibody, human IgG1 vector; The IgG was immobilised on the SPR chip; PDB 4JHW is cited; also called nAb D25
As to the kind of experiment: not stated (comparison value, FIG. 18 cited).

B1: prefusion stabilized RSVF (sc9-10 DS-Cav1 A149C Y458C S46G E92D S215P K465Q variant, DS2) (other)
chain: QNITEEFYQSTCSAVSKGYLGALRTGWYTSVITIELSNIKENKCNGTDAKVKLIKQELDKYKNAVTDLQLLMQSTPPTNNGSGSAICSGVAVCKVLHLEGEVNKIKSALLSTNKAVVSLSNGVSVLTFKVLDLKNYIDKQLLPILNKQSCSIPNIETVIEFQQKNNRLLEITREFSVNAGVTTPVSTYMLTNSELLSLINDMPITNDQKKLMSNNVQIVRQQSYSIMCIIKEEVLAYVVQLPLYGVIDTPCWKLHTSPLCTTNTKEGSNICLTRTDRGWYCDNAGSVSFFPQAETCKVQSNRVFCDTMNSLTLPSEINLCNVDIFNPKYDCKIMTSKTDVSSSVITSLGAIVSCYGKTKCTASNKNRGIIKTFSNGCDYVSNKGMDTVSVGNTLYCVNKQEGQSLYVKGEPIINFYDPLVFPSDEFDASISQVNEKINQSLAFIRKSDELL
notes: also called preRSVF; prefusion RSVF
For orientation: Kd means the constant that tells how readily two partners part at equilibrium. Lower therefore signals higher affinity. In turn, B1 gave a Kd of 150 µM.

These data come from patent publication US20220249649A1 (ECOLE POLYTECHNIQUE FEDERALE DE LAUSANNE, published 2022).
